{
  "source": "paper doi:10.1101/2025.04.28.650843",
  "about": "(bioRxiv, 2025)",
  "target": "the molecule itself",
  "assay": "cryo-EM structure; single-particle reconstruction of intact PBS isolated from Synechococcus 7942 in 0.75 M K/Na-PO4 pH 7.0 with 0.0125% glutaraldehyde; diluted on the grid with 50 mM Tris pH 7.0; 2.98 Å",
  "data": [
    {"protein": "phycocyanin (PC) (complex, covalently attached phycocyanobilin (PCB), positions not printed | covalently attached phycocyanobilin (PCB), positions not given, as m5; as m2; The alpha-beta monomer; it forms the hexamers of the peripheral rods (72 alpha-beta monomers in six rods of two hexamers each); also called alpha-beta monomer of phycocyanin) chain 1: not shown chain 2: MTFDAFTKVVAQADARGEFLSDAQLDALSRLVAEGNKRIDTVNRITGNASSIVANAARALFAEQPSLIAPGGNAYTNRRMAACLRDMEIILRYVTYAVFTGDASILDDRCLNGLRETYLALGVPGASVAEGVRKMKDAAVAIVSDRNGITQGDCSAIISELGSYFDKAAAAVA", "values": [
      {"measurement": "stoichiometry N", "value": 6}
    ]}
  ]
}
